The assay deals with T1, M. smegmatis RNA polymerase β’ subunit (M. smegmatis, UniProt A0QS66 1-1317).
T1 construct: RNA polymerase β’ subunit of Mycobacterium smegmatis mc2155, native chromosomal copy of rpoC with a C-terminal PreScission site and His10 tag; In the crystal β’ stood as part of the whole σ^A-holoenzyme, not as an isolated subunit; also called RNAP β’-ppx-His10; rpoC product
In words: crystal structure; Msm RbpA/σ^A-holo mixed 1:1 with T10 upstream fork promoter DNA (RbpA/TIC, 446 kDa); hanging drop vapor diffusion at 22°C, 0.1 M Bis-Tris pH 6.0, 0.2 M LiSO4, 16% PEG 3350, 2.5% ethylene glycol; 2.76 Å. To be noted: both partners purified.

B1: M. smegmatis RbpA (natural protein)
chain: MADRVLRGSRLGAVSYETDRNHDLAPRQVARYRTDNGEEFDVPFADDAEIPGTWLCRNGLEGTLIEGDVPEPKKVKPPRTHWDMLLERRSVEELEELLKERLDLIKAKRRGTGS
notes: RbpA of Mycobacterium smegmatis mc2155 (MSmeg_3858), cloned from genomic DNA into pet21C; elements NTT (25 residues, disordered in the crystal), CD, BL (residues 70-79), SID; 114 residues by the printed truncations (28-114aa, 72-114aa); the complex was held on the Ni2+ column by the His10-SUMO tag of σ^A and came in the flow-through after that tag was cleaved; The NTT was in the crystallised …
Turning to B1, the binding result is recorded as “binds”.

B2: M. smegmatis σ^A (natural protein)
chain: MAATKASPATEEPVKRTATKTPAKKAPAKRAAKSAAAKAGGKAPAKKAPAKRAAKGTAAKPEDGVTDDLEVTDDLEAEPGEDLDVEDTDLELDDLDSDDDTAVEDEEEEADAATPAVATAKAADDDIDEPSEKDKASGDFVWDEEESEALRQARKDAELTASADSVRAYLKQIGKVALLNAEEEVELAKRIEAGLYATQKLAELAEKGEKLPVQQRRDMQWICRDGDRAKNHLLEANLRLVVSLAKRYTGRGMAFLDLIQEGNLGLIRAVEKFDYTKGYKFSTYATWWIRQAITRAMADQARTIRIPVHMVEVINKLGRIQRELLQDLGREPTPEELAKEMDITPEKVLEIQQYAREPISLDQTIGDEGDSQLGDFIEDSEAVVAVDAVSFTLLQDQLQSVLETLSEREAGVVRLRFGLTDGQPRTLDEIGQVYGVTRERIRQIESKTMSKLRHPSRSQVLRDYLD
notes: primary (group 1) sigma factor σ^A of Mycobacterium smegmatis; domains σ^A2, σ^A3, σ^A4 named in the text; Plasmid Msm pET-SUMO σ^A received from C; Stallings; also called Msm σ^A; SigA
Turning to B2, the binding result is given as “binds”.

The record behind these values is paper PMC5302886, “Structure and function of the mycobacterial transcription initiation complex with the essential regulator RbpA” (eLife, 2017).
